Experimental data as given in article PMC9388093.

Molecular target: T1, rPfTPx-1 (thioredoxin peroxidase 1) (Plasmodium falciparum, UniProt Q8IL80 1-195)
T1 sequence: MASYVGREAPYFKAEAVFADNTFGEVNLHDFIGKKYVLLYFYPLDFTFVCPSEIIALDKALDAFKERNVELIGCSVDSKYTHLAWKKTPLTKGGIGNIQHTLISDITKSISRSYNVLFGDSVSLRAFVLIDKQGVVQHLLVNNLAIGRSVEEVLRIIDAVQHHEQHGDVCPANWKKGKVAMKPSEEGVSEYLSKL
Assay: EMSA

Does AUCACAUACAUAUACACAAACACUUAUACAUACACAUA (ssRNA) [IntPE (PE) RNA probe, fluorescent] bind?
Result: binds
